Columns and labels:
[1] = target: T1, human plasma kallikrein (human, UniProt P03952 20-390; P03952 391-638); assay: ELISA; signal on coated biotinylated human plasma kallikrein divided by signal on streptavidin; Fab
T1 construct: two disulfide-linked chains; also called pKal; human pKal
Source text: Abbreviations used: "T/B" is the ELISA signal obtained using of the target (biotinylated plasma kallikrein) divided by the ELISA signal of the "background" (streptavidin); both of which were coated on microtiter plates. "nd" is not determined. The symbol "q" refers to the amber suppressible stop codon (TAG), which is translated as glutamine (Q) in strains of E. coli such as the TG1 cells that were used to express the Fab fragments.
T1 sequence (P03952 20-390, chain 1 of 2): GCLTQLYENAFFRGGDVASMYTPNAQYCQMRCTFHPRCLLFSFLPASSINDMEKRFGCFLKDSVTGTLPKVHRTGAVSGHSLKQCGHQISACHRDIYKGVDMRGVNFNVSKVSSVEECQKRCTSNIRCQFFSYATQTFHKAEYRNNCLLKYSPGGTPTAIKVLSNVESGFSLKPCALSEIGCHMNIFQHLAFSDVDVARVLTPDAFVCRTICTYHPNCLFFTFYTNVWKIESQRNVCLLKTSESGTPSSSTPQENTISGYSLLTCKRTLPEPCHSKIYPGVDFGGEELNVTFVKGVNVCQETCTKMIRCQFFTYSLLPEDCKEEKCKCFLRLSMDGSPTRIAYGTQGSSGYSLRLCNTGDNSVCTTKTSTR
T1 sequence (P03952 391-638, chain 2 of 2): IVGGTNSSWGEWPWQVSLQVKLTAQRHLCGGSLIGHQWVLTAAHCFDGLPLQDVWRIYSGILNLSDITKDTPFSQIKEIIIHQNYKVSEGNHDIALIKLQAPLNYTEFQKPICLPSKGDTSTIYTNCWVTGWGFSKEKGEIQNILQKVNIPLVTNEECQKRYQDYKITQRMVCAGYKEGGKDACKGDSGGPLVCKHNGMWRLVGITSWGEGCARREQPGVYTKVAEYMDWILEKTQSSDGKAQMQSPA

[2] = target: human plasma kallikrein (human, UniProt P03952 20-390; P03952 391-638); assay: cell-based or functional assay
Target sequence in this assay (P03952 20-390, chain 1 of 2): as the sequence (P03952 20-390, chain 1 of 2) above
Target sequence in this assay (P03952 391-638, chain 2 of 2): as the sequence (P03952 391-638, chain 2 of 2) above

| Human pKal ELISA (T/B) [1] | % inhibition at 10 nM [2] [%] | Binder |
| --- | --- | --- |
| 7.6 T/B (target signal / background signal) | – | M77-H04 (Fab, V domains shown, Fab fragment (E. coli TG1); printed HC runs into the start of CH1) VH: EVQLLESGGGLVQPGGSLRLSCAASGFTFSYYTMIWVRQAPGKGLEWVSGIRSSGGGTRYADSVKGRFTISRDNSKNTLYLQMNSLRAEDTAVYYCAKDGSRYSYGSIYYYYGMDAWGQGTTVTVSS VL: not shown |
| 11.9 T/B (target signal / background signal) | – | M8-D05 (Fab, V domains shown, Fab fragment (E. coli TG1); printed HC runs into the start of CH1) VH: EVQLLESGGGLVQPGGSLRLSCAASGFTFSLYNMNWVRQAPGKGLEWVSSISPSGGFTDYADSVKGRFTISRDNSKNTLYLQMNSLRAEDTAVYYCARDLDLGILDYWGQGTLVTVSS VL: DIQMTQSPSFVSASVGDRVTITCRASQDISSWLVWYQQKPGKGPKLLIYDASNLQSGVPSRFSGGGSGTHFTLTISSLQPEDFATYYCQQADGFPLTFGGGTKVEMK |
| 18.5 T/B (target signal / background signal) | – | M6-G05 (Fab, V domains shown, Fab fragment (E. coli TG1); printed HC runs into the start of CH1) VH: EVQLLESGGGLVQPGGSLRLSCAASGFTFSRYRMVWVRQAPGKGLEWVSSIYPSGGMTAYADSVKGRFTISRDNSKNTLYLQMNSLRAEDTAVYYCARDAVGIGDAFDIWGQGTMVTVSS VL: DIQMTQSPSSLSASVGDRVTITCRASQSISTYLNWYQLKPGKAPKLLIYNAFSMERGVPSTISGSGSGTDFTLTISSLQPEDFATYYCQQSYTTPTTFGQGTKVEIK |
| 14.4 T/B (target signal / background signal) | – | M9-A03 (Fab, V domains shown, Fab fragment (E. coli TG1); printed HC runs into the start of CH1) VH: not shown VL: DIQMTQSPSSLSASLGDRVTITCRASQNIDIYLNWYQQTPGKAPKLLIYGAYNLQSGVPSRFSGSGSGTDFTLTISSLQPEDFGTYYCQQSYGTPVFGQGTKLEIK |
| 44.7 T/B (target signal / background signal) | – | M8-C04 (Fab, V domains shown, Fab fragment (E. coli TG1); printed HC runs into the start of CH1) VH: EVQLLESGGGLVQPGGSLRLSCAASGFTFSYYPMQWVRQAPGKGLEWVSYIYPSGGLTSYADSVKGRFTISRDNSKNTLYLQMNSLRAEDTAVYYCARLFYGSGSVGFEYWGQGTLVTVSS VL: QSALTQPPSVSVSPGQTASITCSGDKLGDKYTSWHQQKPGQSPVLVIYQDSKRPSGIPERFSGSNSGNTATLTISGTQAMDEADYYCQAWDSSTVFGGGTRLTVL |
| – | 93 | M206-A06 (Fab, V domains shown) VH: EVQLLESGGGLVQPGGSLRLSCAASGFTFSNYMMGWVRQAPGKGLQWVSSISPSGGLTKYADSVKGRFTISRDNSKNTLYLQMNSLRAEDTAVYYCARVARGIAARSRTSYFDYWGQGTLVTVSS VL: DIQMTQSPGTLSLSPGERATLSCRTSQFVNSNYLAWYQQTPGQAPRLLIYGASSRATGIPDRFSGTGYGTDFTLTISRLEPEDYGTYYCQQSSRTPWTFGQGTRVEIK |
| – | 90.1 | M208-B01 (Fab, V domains shown) VH: EVQLLESGGGLVQPGGSLRLSCAASGFTFSHYLMTWVRQAPGKGLEWVSYISPSGGHTIYADSVKGRFTISRDNSKNTLYLQMNSLRAEDTAVYYCARVARGIAARSRTSFFDQWGQGTLVTVSS VL: DIQMTQSPGTLSLSPGERATLSCRTSQFVNSNYLAWYQQTPGQAPRLLIYGASSRATGIPDRFSGTGYGTDFTLTISRLEPEDYGTYYCQQSSRTPWTFGQGTRVEIK |
| – | 87.6 | M206-H01 (Fab, V domains shown) VH: EVQLLESGGGLVQPGGSLRLSCAASGFTFSEYMMVWVRQAPGKGLEWVSRISPSGGTTEYADSVKGRFTISRDNSKNTLYLQMNSLRAEDTAVYYCARVARGIAARSRTSYFDYWGQGTLVTVSS VL: DIQMTQSPGTLSLSPGERATLSCRTSQFVNSNYLAWYQQTPGQAPRLLIYGASSRATGIPDRFSGTGYGTDFTLTISRLEPEDYGTYYCQQSSRTPWTFGQGTRVEIK |
| – | 87.3 | M209-B11 (Fab, V domains shown) VH: EVQLLESGGGLVQPGGSLRLSCAASGFTFSHYLMTWVRQAPGKGLEWVSYISPSGGHTIYADSVKGRFTISRDNSKNTLYLQMNSLRAEDTAVYYCARVARGIAARSRTRYIDQWGQGTLVTVSS VL: DIQMTQSPGTLSLSPGERATLSCRTSQFVNSNYLAWYQQTPGQAPRLLIYGASSRATGIPDRFSGTGYGTDFTLTISRLEPEDYGTYYCQQSSRTPWTFGQGTRVEIK |
| – | 89.8 | M209-G07 (Fab, V domains shown) VH: EVQLLESGGGLVQPGGSLRLSCAASGFTFSHYLMTWVRQAPGKGLEWVSYISPSGGHTIYADSVKGRFTISRDNSKNTLYLQMNSLRAEDTAVYYCARVARGIAARSRTSYFDTWGQGTLVTVSS VL: DIQMTQSPGTLSLSPGERATLSCRTSQFVNSNYLAWYQQTPGQAPRLLIYGASSRATGIPDRFSGTGYGTDFTLTISRLEPEDYGTYYCQQSSRTPWTFGQGTRVEIK |
| – | 86.8 | M206-F09 (Fab, V domains shown) VH: EVQLLESGGGLVQPGGSLRLSCAASGFTFSVYMMSWVRQAPGKGLEWVSSIVPSGGSTTYADSVKGRFTISRDNSKNTLYLQMNSLRAEDTAVYYCARVARGIAARSRTSYFDYWGQGTLVTVSS VL: DIQMTQSPGTLSLSPGERATLSCRTSQFVNSNYLAWYQQTPGQAPRLLIYGASSRATGIPDRFSGTGYGTDFTLTISRLEPEDYGTYYCQQSSRTPWTFGQGTRVEIK |
| – | 90.9 | M207-A04 (Fab, V domains shown) VH: EVQLLESGGGLVQPGGSLRLSCAASGFTFSHYLMTWVRQAPGKGLEWVSYISPSGGHTIYADSVKGRFTISRDNSKNTLYLQMNSLRAEDTAVYYCARVARGIAARSRTRSFDYWGQGTLVTVSS VL: DIQMTQSPGTLSLSPGERATLSCRTSQFVNSNYLAWYQQTPGQAPRLLIYGASSRATGIPDRFSGTGYGTDFTLTISRLEPEDYGTYYCQQSSRTPWTFGQGTRVEIK |
| – | 86.8 | M209-C02 (Fab, V domains shown) VH: EVQLLESGGGLVQPGGSLRLSCAASGFTFSHYLMTWVRQAPGKGLEWVSYISPSGGHTIYADSVKGRFTISRDNSKNTLYLQMNSLRAEDTAVYYCARVARGIAYRRRTSYFDYWGQGTLVTVSS VL: DIQMTQSPGTLSLSPGERATLSCRTSQFVNSNYLAWYQQTPGQAPRLLIYGASSRATGIPDRFSGTGYGTDFTLTISRLEPEDYGTYYCQQSSRTPWTFGQGTRVEIK |
| – | 89.5 | M204-A02 (Fab, V domains shown) VH: EVQLLESGGGLVQPGGSLRLSCAASGFTFSDYMMTWVRQAPGKGLQWVSYISPSGGLTSYADSVKGRFTISRDNSKNTLYLQMNSLRAEDTAVYYCARVARGIAARSRTSYFDYWGQGTLVTVSS VL: DIQMTQSPGTLSLSPGERATLSCRTSQFVNSNYLAWYQQTPGQAPRLLIYGASSRATGIPDRFSGTGYGTDFTLTISRLEPEDYGTYYCQQSSRTPWTFGQGTRVEIK |
| – | 86.7 | M208-G02 (Fab, V domains shown) VH: EVQLLESGGGLVQPGGSLRLSCAASGFTFSHYLMTWVRQAPGKGLEWVSYISPSGGHTIYADSVKGRFTISRDNSKNTLYLQMNSLRAEDTAVYYCARVARGIADRSRTSYSDYWGQGTLVTVSS VL: DIQMTQSPGTLSLSPGERATLSCRTSQFVNSNYLAWYQQTPGQAPRLLIYGASSRATGIPDRFSGTGYGTDFTLTISRLEPEDYGTYYCQQSSRTPWTFGQGTRVEIK |
| 3.3 T/B (target signal / background signal) | – | M8-H04 (Fab, V domains shown, Fab fragment (E. coli TG1); printed HC runs into the start of CH1) VH: EVQLLESGGGLVQPGGSLRLSCAASGFTFSGYWMGWVRQAPGKGLEWVSSISSSGGWTQYADSVKGRFTISRDNSKNTLYLQMNSLRAEDTATYYCARDDEIAAGGAFDIWGQGAMVTVSS VL: DIQMTQSPSSLSASIGDRVTITCRASQYISTYLNWYEQKPGKAPKLLIYGTSSLQSGVPSRFSGSGSGTEFSLTISSLQPEDFATYYCQQSFTTPFTFGQGTKLEIK |
| 16 T/B (target signal / background signal) | – | M6-D08 (Fab, V domains shown, Fab fragment (E. coli TG1); printed HC runs into the start of CH1; The LC is printed with an amber codon 'q' (WYqQK), written here as Q) VH: EVQLLESGGGLVQPGGSLRLSCAASGFTFSRYHMVWVRQAPGKGLEWVSSISPSGGWTNYADSVKGRFTISRDNSKNTLYLQMNSLRAEDTAMYYCAREMATIAGQFDPWGQGTLVTVSS VL: DIQMTQSPSSLSASVGDRVTITCRASQSISSYLNWYQQKPGKAPKLLIYGASSLQSGVPSRFSGSGSGTDFTLTISSLQPEDSATYYCQQSYTRWTFGQGTKVEIK |
| 11.7 T/B (target signal / background signal) | – | M6-A06 (Fab, V domains shown, Fab fragment (E. coli TG1); printed HC runs into the start of CH1) VH: EVQLLESGGGLVQPGGSLRLSCAASGFTFSLYQMTWVRQAPGKGLEWVSGIWPSGGFTDYADSVKGRFTISRDNSKNTLYLQMNSLRAEDTAVYYCARVSTAVADNDYWGQGTLVTVSS VL: DIQMTQSPSSLSASVGDSVTISCRASQSISMYLNWYQHKPGKAPKLLIYGTSSLQSGVPSRFSGSGPGGTDFTLTISSLQPEDFATYYCQQSYSAPWTFGQGTKVEIK |
| 15.5 T/B (target signal / background signal) | – | M6-D03 (Fab, V domains shown, Fab fragment (E. coli TG1); printed HC runs into the start of CH1) VH: EVQLLESGGGLVQPGGSLRLSCAASGFTFSKYFMGWVRQAPGKGLEWVSVIGSSGGWTSYADSVKGRFTISRDNSKNTLYLQMNSLRAEDTAVYYCARVSTAVADNDYWGQGTLVTVSS VL: not shown |
| 8.8 T/B (target signal / background signal) | – | M8-E06 (Fab, V domains shown, Fab fragment (E. coli TG1); printed HC runs into the start of CH1) VH: EVQLLESGGGLVQPGGSLRLSCAASGFTFSHYFMTWVRQAPGKGLEWVSSIVPSGGMTQYADSVKGRFTISRDNSKNTLYLQMNSLRAEDTAVYYCARDSYSSSWFDIWGQGTMVTVSS VL: not shown |
| 23.4 T/B (target signal / background signal) | – | M6-A08 (Fab, V domains shown, Fab fragment (E. coli TG1); printed HC runs into the start of CH1) VH: EVQLLESGGGLVQPGGSLRLSCAASGFTFSPYPMQWVRQAPGKGLEWVSSISSSGGMTEYADSVKGRFTISRDNSKNTLYLQMNSLRAEDTAVYYCARDDYGGKGGAFDIWGQGTMVTVSS VL: DIQMTQSPSSLSASVGDRVTITCRASQRISFYLNWFQQKPGKAPNLLIYGASSLQSGVPSRFSGSGSGTDFTLTISSLQPKDFGTYYCQQTFSTPNTFGQGTKLEIK |
| 28.2 T/B (target signal / background signal) | – | M8-G09 (Fab, V domains shown, Fab fragment (E. coli TG1); printed HC runs into the start of CH1) VH: EVQLLESGGGLVQPGGSLRLSCAASGFTFSLYEMLWVRQAPGKGLEWVSVIYPSGGYTDYADSVKGRFTISRDNSKNTLYLQMNSLRAEDMAVYYCARSFSGFGEIDYWGQGTLVTVSS VL: DIQMTQSPSSLSASVGDTVTITCRASQGVSYYLAWFQQKPGKAPKSLIYGASSLQSGVPSKFSGSGSGTVFTLTISSLQPDDFATYYCQQYNTYPPTFGQGTRLDIK |
